We go through two molecules from patent US7452701B2, “Methods for the preparation of β-amino acids” (Wisconsin Alumni Research Foundation, priority 1998, dated 2008).

Data set [1] concerns the target T1, Clostridial lysine 2,3-aminomutase (Clostridium subterminale, UniProt Q9XBQ8).
T1 construct: made in house; host or cells: E. coli BL21(DE3) with pET-23a(+) (lysine 2,3-aminomutase gene) and pAlter-Ex2 (dnaY gene)
In words: Lysine 2,3-aminomutase activity, conversion of C-14 L-α-lysine to L-β-lysine (paper electrophoresis). Particulars: purified recombinant produced enzyme. The format is biochemical, Clostridium subterminale SB4. The protocol:
Aerobically grown E. coli cells (1 ml) containing the pET 23a(+) plasmid vector with the Clostridial lysine 2,3-aminomutase gene and the p-Alter-EX2 plasmid vector with the E. coli dnaY gene were used to seed a glass fermentor (Virtis Laboratory Fermentor #233395, Virtis Corporation, Gardiner, N.Y.) containing 15 liters of 2×YT media (240 gm Difco Bactotryptone, 150 gm Bacto yeast extract, […], Difco Laboratories, Detroit, Mich.) and supplemented with 50 μM Fe(II)SO4, 50 μM ZnSO4, 50 μM Na2S, 4 mM sodium thioglycolate, 100 μg/ml ampicillin, and 10 μg/ml tetracycline. The sealed flask was made anaerobic by gentle bubbling of nitrogen gas for 3 hours prior to cell inoculation. Anaerobicity was monitored by the presence of a small quantity of methylene blue (10 mg) which remains colorless in the absence of oxygen. After approximately 14 hours anaerobic culture at 37° C. when the cell density had reached 0.05 OD (optical density) at 600 nm, 0.2% (w/v) D-(+) glucose was added. […]
The supernatant was used to measure L-β-lysine formation according to the procedure of Ballinger et al. Biochemistry 31:10782 (1992). […] The mixture was spotted onto chromatography paper (Whatman #3001917, Whatman, LTD, Maidstone, England), the amino acids separated by electrophoresis and radioactivity measured according to the published procedure. […]

In data set [2] the target is T2, Escherichia coli 2,3-aminomutase (P39280 protein) (Escherichia coli, UniProt P39280).
T2 sequence (P39280 whole entry, looked up): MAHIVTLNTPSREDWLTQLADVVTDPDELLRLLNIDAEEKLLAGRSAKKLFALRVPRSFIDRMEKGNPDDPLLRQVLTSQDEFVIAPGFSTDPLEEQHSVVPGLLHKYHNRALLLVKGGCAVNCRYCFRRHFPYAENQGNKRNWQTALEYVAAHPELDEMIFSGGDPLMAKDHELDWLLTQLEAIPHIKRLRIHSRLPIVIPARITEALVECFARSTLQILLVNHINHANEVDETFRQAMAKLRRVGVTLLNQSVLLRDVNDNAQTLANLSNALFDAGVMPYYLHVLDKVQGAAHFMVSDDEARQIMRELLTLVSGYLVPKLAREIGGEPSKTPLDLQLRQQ
The data set is described as follows: Lysine 2,3-aminomutase activity of E. coli P39280 protein, HPLC of PITC derivatives. The class given is biochemical. Particulars: L-lysine 44 mM, 37° C. for 60 min. On the procedure: Lysine 2,3-aminomutase activity was measured with the Escherichia coli 2,3-aminomutase (P39280 protein) as described for alanine 2,3-aminomutase (see Example 5) with the following exceptions: P39280 protein, (25.4 μM-subunit); S-(5′-adenosyl)-L-methionine 90 μM; sodium hydrosulfite 2.3 mM; L-lysine 44 mM. The reaction was conducted at 37° C. for 60 min. The HPLC gradient established was 0-10% Buffer B in 35 min, 10-30% Buffer B in 35 min, 30-55% Buffer B in 35 min, and 55-100% Buffer B in 20 min. The PITC derivative of L-lysine eluted at a retention time of 101 min whereas the PITC derivative of β-lysine eluted at 95.6 min.

B1: purified recombinant produced lysine 2,3-aminomutase: Clostridial lysine 2,3-aminomutase expressed in E. coli and purified (protein, UniProt Q9XBQ8 1-416, looked up)
L-lysine 2,3-aminomutase: MINRRYELFKDVSDADWNDWRWQVRNRIETVEELKKYIPLTKEEEEGVAQCVKSLRMAITPYYLSLIDPNDPNDPVRKQAIPTALELNKAAADLEDPLHEDTDSPVPGLTHRYPDRVLLLITDMCSMYCRHCTRRRFAGQSDDSMPMERIDKAIDYIRNTPQVRDVLLSGGDALLVSDETLEYIIAKLREIPHVEIVRIGSRTPVVLPQRITPELVNMLKKYHPVWLNTHFNHPNEITEESTRACQLLADAGVPLGNQSVLLRGVNDCVHVMKELVNKLVKIRVRPYYIYQCDLSLGLEHFRTPVSKGIEIIEGLRGHTSGYCVPTFVVDAPGGGGKTPVMPNYVISQSHDKVILRNFEGVITTYSEPINYTPGCNCDVCTGKKKVHKVGVAGLLNGEGMALEPVGLERNKRHVQE
As for B1, the enzyme activity in data set [1] is on record as 34.5±1.6 μmoles lysine min^1 mg^−1 protein.

B2: P39280-protein: E. coli polypeptide, SEQ ID NO: 4, distant homologue of lysine 2,3-aminomutase from Cl. subterminale (protein, listed as Escherichia coli)
chain: MAHIVTLNTPSREDWLTQLADVVTDPDELLRLLNIDAEEKLLAGRSAKKLFALRVPRSFIDRMEKGNPDDPLLRQVLTSQDEFVIAPGFSTDPLEEQHSVVPGLLHKYHNRALLLVKGGCAVNCRYCFRRHFPYAENQGNKRNWQTALEYVAAHPELDEMIFSGGDPLMAKDHELDWLLTQLEAIPHIKRLRIHSRLPIVIPARITEALVECFARSTLQILLVNHINHANEVDETFRQAMAKLRRVGVTLLNQSVLLRDVNDNAQTLANLSNALFDAGVMPYYLHVLDKVQGAAHFMVSDDEARQIMRELLTLVSGYLVPKLAREIGGEPSKTPLDLQLRQQ
Consider B2, for which the “2,3-aminomutase activity toward L-lysine” value in data set [2] was “does display 2,3-aminomutase activity”.
